Patent US20110060580A1 (published 2011)
One block for each binder: values may come before it.

B1: human LXRβ-LBD (liver X receptor beta ligand binding domain, amino acids 213-461 of Seq. Id. No. 1) (receptor)
chain: GEGEGVQLTAAQELMIQQLVAAQLQCNKRSFSDQPKVTPWPLGADPQSRDARQQRFAHFTELAIISVQEIVDFAKQVPGFLQLGREDQIALLKASTIEIMLLETARRYNHETECITFLKDFTYSKDDFHRAGLQVEFINPIFEFSRAMRRLGLDDAEYALLIAINIFSADRPNVQEPGRVEALQQPYVEALLSYTRIKRPQDQLRFPRMLMKLVSLRTLSSVHSEQVFALRLQDKKLPPLLSEIWDVHE
notes: The His tag was removed by thrombin before crystallization; Id; No. 1; Each crystal also held a small-molecule agonist; also called LXR-LBD; hLXRbeta213G-460E

How the values were obtained:
[1] = molecular target: B1; assay: X-ray co-crystal structure (Example 1, space group P43)
Protocol: (§1) Protein used for crystallization of LXRβ-LBD together with 2-(4-{[2-(3-Chloro-phenyl)-5-methyl-oxazol-4-ylmethyl]-ethyl-amino }-phenyl)-1,1,1,3,3,3-hexafluoro-propan-2-ol has been purified as described above. The protein was incubated with ligand in a 12-fold molar excess for 2 hours at room temperature. A short co-activator peptide ([…]) (Seq. Id. No. 3) from SRC-1 was added in 12-fold molar excess and incubation continued overnight at 4 ° C. Prior to crystallization experiments the protein was centrifuged at 20000× g. The crystallization droplets were set up at 22 ° C. by mixing 1.5 μl of protein solution with 0.5 μl reservoir solution in vapour diffusion hanging drop experiments. Crystals appeared out of 0.2 M (NH₄)₂SO₄, 25% PEG 3350 after 1 day and grew to final size of 0.15 mm×0.15 mm×0.05 mm within 2 days.
(§2) Crystals were harvested with paraffin oil as cryoprotectant and then flash frozen in a 100 K N2 stream. Diffraction images were collected at a temperature of 100 K at the beamline X06SA of the Swiss Light Source and processed with the programs DENZO and […] yielding data to a resolution of 3.2 Å. Standard crystallographic programs from the CCP4 software suite were used to determine the structure by molecular replacement using an in-house LXRβ-LBD structure as search model. Refinement and model building cycles were performed with REFMAC and MOLOC, respectively (Table 1).

[2] = molecular target: the molecule itself; assay: X-ray co-crystal structure (Example 1); homodimer
Protocol: as §1, §2

[3] = molecular target: B1; assay: X-ray co-crystal structure (Example 3, space group P1)
Protocol: Protein used for crystallization of LXRβ-LBD together with - (R,S)-Benzenesulfonyl-(6chloro-2,3,4,9-tetrahydro-1H-carbazol-2-yl)-fluoro-acetic acid methyl ester has been purified as described above. The protein was incubated with ligand in a 15-fold molar excess for 2 hours at room temperature. A short co-activator peptide ([…]) (Seq. Id. No. 4) from SRC-1 was added in 3-fold molar excess and incubation continued overnight at 4 ° C. Prior to crystallization experiments the protein was concentrated to 12 mg/ml and centrifuged at 20000 ×g. The crystallization droplet was set up at room temperature by mixing 1.5 μl of protein solution with 0.5 μl reservoir solution in vapour diffusion hanging drop experiments. Crystals appeared out of 0.1 M Bis-Tris pH 5.5, 0.2 M (NH⁴⁾²SO₄, 25% PEG 3350 after 1 day and grew to final size of 0.2 mm×0.1 mm×0.05 mm within 2 days.
as §2, with “N₂” for “N2”, “2.3” for “3.2”, “LXR-LBD” for “LXRβ-LBD”, “Refinement and model building cycles were performed with REFMAC and MOLOC, respectively (Table 1).” left out

binding result [1]: binds
Binder: KDHQLLRYLLDKD (13-residue peptide from SRC-1) [short co-activator peptide (KDHQLLRYLLDKD) (Seq. Id. No. 3) from SRC-1]

Binder: B1
binding result [2]: binds

binding result [3]: binds
Binder: ERHKILHRLLQEG (13-residue peptide from SRC-1) [short co-activator peptide (ERHKILHRLLQEG) (Seq. Id. No. 4) from SRC-1]
